The values below come from patent US12661396B2, “Selective targeting of the TREML1/MD2 interaction by small peptide or protein and its use for vaccine adjuvants” (Ascendo Biotechnology, Inc., priority 2020, dated 2026).

The target of one assay is T1, MD2 (Homo sapiens, UniProt Q9Y6Y9).
T1 sequence (Q9Y6Y9 19-160): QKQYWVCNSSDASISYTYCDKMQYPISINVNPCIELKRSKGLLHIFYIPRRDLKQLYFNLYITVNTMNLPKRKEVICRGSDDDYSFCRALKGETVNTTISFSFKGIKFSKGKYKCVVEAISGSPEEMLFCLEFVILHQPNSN
The assay is described as follows: Solid phase binding assay, TREML1 ECD to immobilized MD2. The following applies: absorbance at 450 nm; TREML1 ECD 2.5 ug/ml to 156 ng/ml; FIG. 2. The method, then: (§1) To identify potential binding partners of TREML1 ECD, we used solid phase binding assay to assess interactions between TREML1 ECD and candidate proteins. Briefly, various candidate proteins and BSA (as a negative control) were coated on a 96-well plate and TREML1 ECD at various concentrations were added to the wells. After binding and washing, an anti-TREML1 antibody conjugated with horse radish peroxidase (HRP) was added to each well. After washing, HRP substrate, TMB (3,3′,5,5′-tetramethylbenzidine), was added. After reaction, absorbance at 450 nm was measured to assess TREML1 binding.
(§2) To investigate the protein-protein interactions. Recombinant TLR4 (5 ug/ml in PBS), MD2 (5 ug/ml in PBS), CD14 (5 ug/ml in PBS), and BSA (negative control) proteins were plated separately on 96-well plates and incubated overnight at 4 degrees Celsius. The blocking buffer (2% BSA in PBS) was added to avoid the nonspecific binding for 2 hr at room temperature. A serial diluted TREML1 ECD (2.5 ug/ml to 156 ng/ml, 2-fold dilutions) solutions were added and allowed to incubate at room temperature for 2 hr. Then, anti-TREML1 antibody (1 ug/ml in PBS) was added for 1 hr. Next, a secondary antibody with HRP labeling, anti-Rat IgG-HRP, was added to the plates and incubated for 30 minutes at room temperature. […] Absorbance at OD450/540 nm was measured with a microplate reader.

The test system of assay [1] is THP1/XBlue/MD2/CD14 cells. Nature of the assay: TREML1 ECD binding to THP1/XBlue/MD2/CD14 cells and antibody competition (flow cytometry). The assay is classed as cell-based. As to conditions: TREML1 ECD 10 ug/ml, 1 hour; AF647-anti-human TREML1 staining; FIG. 4. The text has this:
(§3) In addition to the solid phase binding assays, the TREML1 ECD binding was further evaluated using THP1/XBlue/MD2/CD14 cells (InvivoGen, San Diego, USA), which express MD2 and CD14. These cells (InvivoGen, San Diego, USA) are derived from the human monocytic THP1 cell line and express an NF-κB- and AP-1-inducible secreted embryonic alkaline phosphatase (SEAP) reporter gene.
To investigate the effects of anti-TLR4 antibody (HTA125, BioLegend #312814) and anti-MD2 antibody (18H10, ThermoFisher #MA5-33351) on TREML1 ECD binding to THP1/XBlue/MD2/CD14 cells, cells were pretreated with anti-MD2 antibody, anti-TLR4 antibody, IgG control, or a combination for 15 min at 37° C. with 5% CO2. After antibodies treatments, cells were treated with TREML1 ECD (10 ug/ml) and incubated for 1 hours. Cells were washed with PBS containing 1% FBS and stained with AF647-anti-human TREML1 antibody, followed by flow cytometric analysis.
The cells were resuspended in PBS containing 1% FBS at a density of 2×10^6 cells/ml and non-specific bindings of Abs were blocked using Human Fc Block (BD Biosciences #564220) at room temperature for 10 min. AF647-anti-human TREML1 (clone 268420) (R&D #FAB2394R) antibody was used as a detection antibody of TREML1 binding to cell surface. […] Binding analysis was performed on a CytoFLEX Flow Cytometer (Beckman Coulter) and the collected data were analyzed using Kazula software.
(In general: Flow cytometry measures light scatter and fluorescence of single cells or particles in a stream.)

Assay [2] has as its system THP1/XBlue/MD2/CD14 cells. The assay is described as follows: TNF-α secretion by THP1/XBlue/MD2/CD14 monocytes (ELISA). As to conditions: FIG. 5B. The assay is classed as cell-based, human. Here is the method: (§4) To investigate the effects of anti-TLR4 antibody and anti-MD2 antibody on TREML1 ECD-triggered TLR response, THP1/XBlue/MD2/CD14 cells were pretreated with anti-TLR4 antibody, anti-MD2 antibody, or IgG control for the indicated groups and incubated for 15 minutes at 37° C., 5% CO2. After pretreatments, THP1/XBlue/MD2/CD14 cells were stimulated by TREML1 ECD (10 ug/ml) and seeded at a concentration of 1×10^6 cells/ml (200 ul per well) into wells of a 96-well plate for 18 hr at 37° C., 5% CO2. To determine the NF-κB activation, the supernatants of culture medium were collected and assessed with QUANTI-Blue™ reagent (InvivoGen) according to the manufacturer's instructions.
Cell supernatants and plasma samples were harvested and stored at −80° C. Human TNFα concentrations were detected using TNF-α DuoSet ELISA kit (R&D #DY210) according to manufacturer's instructions. Signals were developed using 3,3′,5,5′-tetramethylbenzidine and the absorbance of 450 nm was detected with a microplate reader.
In general terms: An ELISA detects its analyte on a solid surface through an enzyme-linked reagent.

Another assay concerns the target T2, CD14 (Homo sapiens, UniProt P08571).
T2 sequence (P08571 20-345): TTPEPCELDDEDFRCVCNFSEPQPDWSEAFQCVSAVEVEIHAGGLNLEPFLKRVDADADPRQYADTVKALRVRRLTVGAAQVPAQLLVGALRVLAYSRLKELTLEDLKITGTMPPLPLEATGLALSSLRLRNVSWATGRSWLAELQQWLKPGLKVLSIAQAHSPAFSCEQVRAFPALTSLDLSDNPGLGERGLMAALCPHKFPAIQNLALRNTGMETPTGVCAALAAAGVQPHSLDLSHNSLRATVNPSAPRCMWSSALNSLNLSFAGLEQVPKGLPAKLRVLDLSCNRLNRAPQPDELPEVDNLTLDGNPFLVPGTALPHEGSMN
Nature of the assay: Solid phase binding assay, TREML1 ECD to immobilized CD14. The following applies: absorbance at 450 nm; FIG. 2. Here is the method: as §1, §2

For assay [3], the system named is Human peripheral blood mononuclear cells (PBMCs). Nature of the assay: TLR agonist-induced TNF-α secretion in human PBMCs with or without TREML1 ECD. The assay is classed as cell-based. As to conditions: human PBMCs pretreated with hTREML1 10, 5, 1 ug/ml for 30 min. The method, then: Human peripheral blood samples from healthy volunteer donors were collected by venipuncture bled into ACD vacutainer tubes. Human peripheral blood mononuclear cells (PBMCs), which were separated from whole blood using Ficoll-Paque Plus (GE17-1440-03) according to the manufacturer's instructions. Human peripheral blood mononuclear cells (PBMCs) were pretreated with or without […]1 (10 ug/ml, 5 ug/ml and 1 ug/ml) and incubated for 30 min at 37° C. with 5% CO2. After treatments, cells were stimulated with TLR agonist, including R848 (InvivoGen #tlrl-r848) and ODN2395 (InvivoGen #tlrl-2395), and incubated at 37° C. with 5% CO2 for 18 hr. Supernatants of cell culture medium were collected for TNF-α measurements. Cell supernatants and plasma samples were harvested and stored at -80° C. Human TNFα concentrations were detected using TNF-α DuoSet ELISA kit (R&D #DY210) according to manufacturer's instructions. Signals were developed using 3,3',5,5'-tetramethylbenzidine and the absorbance of 450 nm was detected with a microplate reader.

A further assay has as its system NF-κB. Nature of the assay: NF-κB activation in THP1/XBlue/MD2/CD14 cells (SEAP reporter, QUANTI-Blue). The assay is classed as cell-based, human. As to conditions: FIG. 5A.
Source text: as §3, §4

A further assay has as its target TLR4 (Homo sapiens, UniProt O00206). The assay is described as follows: Solid phase binding assay, TREML1 ECD to immobilized TLR4. The following applies: absorbance at 450 nm; TREML1 ECD 2.5 ug/ml to 156 ng/ml; FIG. 2. Here is the method:
as §1, §2

Sequence of TLR4 (O00206 24-839): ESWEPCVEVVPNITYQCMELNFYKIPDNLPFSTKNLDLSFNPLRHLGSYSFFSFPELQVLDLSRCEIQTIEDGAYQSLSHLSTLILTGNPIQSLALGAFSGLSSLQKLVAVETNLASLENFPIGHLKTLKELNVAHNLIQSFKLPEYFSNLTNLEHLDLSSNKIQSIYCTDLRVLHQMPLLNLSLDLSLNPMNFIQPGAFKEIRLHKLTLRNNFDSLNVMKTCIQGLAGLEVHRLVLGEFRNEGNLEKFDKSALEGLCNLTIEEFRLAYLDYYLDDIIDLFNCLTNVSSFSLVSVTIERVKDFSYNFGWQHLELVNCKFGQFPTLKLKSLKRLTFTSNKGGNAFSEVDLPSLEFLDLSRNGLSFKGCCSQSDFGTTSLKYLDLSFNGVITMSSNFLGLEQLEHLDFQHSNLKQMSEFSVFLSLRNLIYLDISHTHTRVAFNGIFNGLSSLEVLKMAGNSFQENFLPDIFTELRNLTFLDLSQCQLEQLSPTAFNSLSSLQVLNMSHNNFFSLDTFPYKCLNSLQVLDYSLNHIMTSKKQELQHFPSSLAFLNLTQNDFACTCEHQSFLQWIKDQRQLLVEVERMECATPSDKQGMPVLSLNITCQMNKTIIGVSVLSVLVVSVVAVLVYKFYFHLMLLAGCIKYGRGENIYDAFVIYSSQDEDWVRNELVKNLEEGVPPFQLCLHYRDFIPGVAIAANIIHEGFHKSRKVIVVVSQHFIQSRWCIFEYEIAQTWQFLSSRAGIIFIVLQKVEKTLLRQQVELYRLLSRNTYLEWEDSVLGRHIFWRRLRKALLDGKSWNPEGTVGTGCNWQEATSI

B1: TREML1 ECD: human TREML1 extracellular domain, SEQ ID NO:1; recombinant, E. coli, polyhistidine tag at the N-terminus (protein)
chain: QGIVGSLPEVLQAPVGSSILVQCHYRLQDVKAQKVWCRFLPEGCQPLVSSAVDRRAPAGRRTFLTDLGGGLLQVEMVTLQEEDAGEYGCMVDGARGPQILHRVSLNILPPEEEEETHKIGSLAENAFSDPAGSANPLEPSQDEKSIP
modifications: N-terminal polyhistidine tag; homo sapiens
notes: recombinant, E. coli, polyhistidine tag at the N-terminus
Regarding B1, the “TREML1 ECD binding to immobilized MD2” value with MD2 is “binds MD2 and TLR4 in a concentration-dependent manner”. Moreover, in assay [1], the “binding to THP1/XBlue/MD2/CD14 cells” value is “can bind to the THP1/XBlue/MD2/CD14 cells”. In addition, the “TNF-α secretion by THP1/XBlue/MD2/CD14 monocytes” value in assay [2] is “induces THP1/XBlue/MD2/CD14 monocyte activation”. The “TREML1 ECD binding to immobilized CD14” value with CD14 was “does not bind to CD14”. Moreover, the “effect on R848 (TLR7/8)-induced TNF-α secretion” value in assay [3] (FIG. 7A) was “enhanced in the presence of TREML1 ECD”. Also, the “effect on ODN 2395 (TLR9)-induced TNF-α secretion” value in assay [3] (FIG. 7B) was “enhanced in the presence of TREML1 ECD in a dose-dependent manner”. Besides, in the assay with NF-κB, the “NF-κB activation in THP1/XBlue/MD2/CD14 monocytes” value is on record as “induced activation of NF-κB”. Besides, the “TREML1 ECD binding to immobilized TLR4” value with TLR4 was “binds MD2 and TLR4 in a concentration-dependent manner”.
